Experiments:
[1] = biological target: endogenous human LSR of PLC hepatoma cells (human) (UniProt Q86X29); test: cell-based or functional assay
[2] = biological target: human LSR α′ subunit expressed in CHO-K1 cells (human) (UniProt Q86X29); test: cell-associated ^125I-leptin on CHO-K1 cells stably expressing LSR α′, 37° C., 2 h; Lineweaver-Burk transformation (FIG. 3C, inset)
[3] = biological target: human LSR α′ subunit expressed in CHO-K1 cells (human) (UniProt Q86X29); test: cell-based or functional assay

Sequence of endogenous human LSR of PLC hepatoma cells (human) (Q86X29 whole entry): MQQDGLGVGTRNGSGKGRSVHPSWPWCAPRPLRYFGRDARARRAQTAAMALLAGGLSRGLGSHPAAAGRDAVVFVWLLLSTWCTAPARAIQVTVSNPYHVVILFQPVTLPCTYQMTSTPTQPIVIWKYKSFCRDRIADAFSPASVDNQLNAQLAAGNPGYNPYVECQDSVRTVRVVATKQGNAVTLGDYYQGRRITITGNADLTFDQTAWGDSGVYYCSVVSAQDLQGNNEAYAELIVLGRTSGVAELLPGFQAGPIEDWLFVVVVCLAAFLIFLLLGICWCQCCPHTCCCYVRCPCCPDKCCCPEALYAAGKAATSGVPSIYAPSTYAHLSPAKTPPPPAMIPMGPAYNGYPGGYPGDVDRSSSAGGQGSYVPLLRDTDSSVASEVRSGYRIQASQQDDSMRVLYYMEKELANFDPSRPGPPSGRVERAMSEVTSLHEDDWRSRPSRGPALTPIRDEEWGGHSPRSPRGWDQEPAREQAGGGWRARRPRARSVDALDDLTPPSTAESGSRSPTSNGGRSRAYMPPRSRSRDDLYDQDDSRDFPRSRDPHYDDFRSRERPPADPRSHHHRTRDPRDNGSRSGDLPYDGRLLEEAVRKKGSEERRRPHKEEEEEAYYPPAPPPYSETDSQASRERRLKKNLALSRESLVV
Sequence of human LSR α′ subunit expressed in CHO-K1 cells (human) (Q86X29 whole entry): as above

| acute leptin stimulation of oleate-induced ^125I-LDL binding in PLC cells preincubated 24 h with 200 ng/mL leptin: leptin concentration giving the maximal effect [1] [ng/mL] | acute leptin stimulation of oleate-induced ^125I-LDL binding in PLC cells preincubated 24 h with 200 ng/mL leptin: reduction of the maximal effect [1] [%] | oleate-induced LSR binding uptake and degradation of ^125I-LDL in PLC cells [1] [ng/mL] | Kd [2] [nM] | ^125I-leptin degradation by PLC cells (TCA-soluble chloroform-insoluble products) [1] [ng/mL] | ^125I-leptin degraded relative to that bound and internalized [3] [%] | Substance |
| --- | --- | --- | --- | --- | --- | --- |
| 100 | 50 | > 10 | – | – | – | recombinant human leptin (from UniProt P41159 22-167) (ligand) |
| – | – | – | 1.3 | > 10 | 16 | ^125I-leptin (species not stated) (ligand) |
